From patent US20260115299A1, “CALSEQUESTRIN-BASED METAL ION REACTIVE PARTICLE AND USES THEREOF” (TOOLBIO. CO.,LTD., priority 2022, published 2026)

Columns and labels:
[1] = tested on: HaCaT cells; assay: In vitro proliferation test (XTT); assay type: cell-based; settings: 2.5 nM, 2 days, compared with native KGF
Description: HaCaT cells in 96-well plates were aliquoted at a specific cell/well and incubated at 37° C. in a 5% CO2 incubator with 10% FBS and 1% P/S-DMEM for one day. Starvation was performed with FBS Free DMEM for one day. After washing twice with DPBS, CSQ-KGF, CSQ, and KGF were added to FBS-free DMEM at a concentration of 2.5 nM, and the sample was divided so that the total volume became 200 ? . After incubation in an incubator for 2 days, XTT cell availability kit reagents were aliquoted, and then 450 nm absorbance was determined with a microplate reader.

[2] = tested on: HaCaT cells; assay: In vitro migration test (scratch); assay type: cell-based; settings: 10 nM, 24-hour intervals, compared with native KGF
Description: HaCaT cells were aliquoted into 24-well plates at a specific cell/well and incubated at 37° C. in a 5% CO2 incubator with 10% FBS and 1% P/S-DMEM for one day. Starvation was performed with FBS Free DMEM for one day. Cells were scratched in a straight line using a 1000 ? pipette tip. After washing twice with DPBS, CSQ-KGF, CSQ, and KGF were added to FBS Free DMEM at a concentration of 10 nM, and the sample was divided so that the total volume became 500 ? . While culturing in a 5% CO2 incubator at 37° C. scratches were observed using a phase-contrast microscope at 24-hour intervals from […], and photographs were taken. The extent of wound closure was compared by analyzing the scratch area of the captured images using ImageJ.

B1: CSQ-KGF: fusion protein of human calsequestrin CSQ1 (SEQ ID No. 1) and KGF (SEQ ID No. 12) (protein)
chain: QEGLDFPEYDGVDRVINVNAKNYKNVFKKYEVLALLYHEPPEDDKASQRQFEMEELILELAAQVLEDKGVGFGLVDSEKDAAVAKKLGLTEVDSMYVFKGDEVIEYDGEFSADTIVEFLLDVLEDPVELIEGERELQAFENIEDEIKLIGYFKSKDSEHYKAFEDAAEEFHPYIPFFATFDSKVAKKLTLKLNEIDFYEAFMEEPVTIPDKPNSEEEIVNFVEEHRRSTLRKLKPESMYETWEDDMDGIHIVAFAEEADPDGFEFLETLKAVAQDNTENPDLSIIWIDPDDFPLLVPYWEKTFDIDLSAPQIGVVNVTDADSVWMEMDDEEDLPSAEELEDWLEDVLEGEINTEDDDDDDDDMCNDMTPEQMATNVNCSSPERHTRSYDYMEGGDIRVRRLFCRTQWYLRIDKRGKVKGTQEMKNNYNIMEIRTVAVGIVAIKGVESEFYLAMNKEGKLYAKKECNEDCNFKELILENHYNTYASAKWTHNGGEMFVALNQKGIPVRGKKTKKEQKTAHFLPMAIT
proliferation efficacy (450 nm absorbance, XTT) [1]: same efficacy as native KGF | migration efficacy (extent of wound closure, scratch area) [2]: same efficacy as native KGF
